Sequences and labels used below:
T1: full length human TPO-R (human, UniProt P40238 26-635)
T1 sequence (looked up): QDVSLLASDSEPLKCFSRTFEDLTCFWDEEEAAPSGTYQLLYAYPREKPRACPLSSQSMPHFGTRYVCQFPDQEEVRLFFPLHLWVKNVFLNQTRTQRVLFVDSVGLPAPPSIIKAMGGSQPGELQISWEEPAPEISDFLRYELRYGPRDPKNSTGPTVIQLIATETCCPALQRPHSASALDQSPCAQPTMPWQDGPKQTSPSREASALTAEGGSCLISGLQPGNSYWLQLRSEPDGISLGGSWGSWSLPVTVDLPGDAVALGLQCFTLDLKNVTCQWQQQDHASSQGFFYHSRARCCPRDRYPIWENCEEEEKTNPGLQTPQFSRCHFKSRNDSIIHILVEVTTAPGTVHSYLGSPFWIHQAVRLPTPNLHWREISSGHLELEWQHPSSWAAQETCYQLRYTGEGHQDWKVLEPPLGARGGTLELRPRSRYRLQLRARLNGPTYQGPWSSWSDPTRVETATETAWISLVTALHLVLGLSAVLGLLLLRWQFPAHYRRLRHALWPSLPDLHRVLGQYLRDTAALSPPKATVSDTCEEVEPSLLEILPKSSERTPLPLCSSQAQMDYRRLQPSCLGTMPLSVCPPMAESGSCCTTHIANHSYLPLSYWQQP

Data on 26 molecules can be found in US7091311 (GlaxoSmithKline, dated 2006).

By IC50 is commonly meant the midpoint of a concentration-inhibition curve.

Bridges are numbered along the chain shown (N, C = ends). Where no end group is shown, it is not given here. The star is where a group is joined. Biotin = O=C1N[C@H]2[C@H](CS[C@H]2CCCCC(=O)*)N1 A value given as a limit tells only on which side of the number the result lay.

In the first assay the target is T2, soluble TPO-R (UniProt P40238 26-491).
T2 construct: extracellular domain; Immobilized through anti-HPAP antibody Ab179; also called thrombopoietin receptor; c-mpl
In words: competition ELISA vs MBP-TPO156. For orientation: ELISA stands for enzyme-linked immunosorbent assay.
For the molecule H-CADGPTLREWISFC-NH2 (disulfide 1-14 (inferred), also called [drawing CHEM-US-00034]) [cyclized monomer (SEQ ID NO:12)], the IC50 was at most 500 nM.

Another assay has as its target T3, soluble TPO-R (UniProt P40238 26-491). In words: competition ELISA vs MBP-TPO156.
Molecule DGPTLREWISFC (also: further groups not given here, structure printed only as a drawing) [[drawing CHEM-US-00037] (SEQ ID NO:189)(SEQ ID NO:189)] showed an IC50 of at most 500 nM.
The same measure, in the same setting: next, CIEGPTLRQWLAARA (also: further groups not given here, also called [drawing CHEM-US-00062]) [[drawing CHEM-US-00030] (SEQ ID NO:185)(SEQ ID NO:185)]: at most 500 nM.
As to SVQCGPTLRQWLAARNHLS (also: further groups not given here, structure printed only as a drawing) [[drawing CHEM-US-00032] (SEQ ID NO:187)(SEQ ID NO:187)], the IC50 is at most 500 nM.
On to MVGPTLRSGC (also: further groups not given here, structure printed only as a drawing) [[drawing CHEM-US-00033] (SEQ ID NO:188)(SEQ ID NO:188)], for which the IC50 was around 200000 nM.
Take CADGPTLREWISF (also: further groups not given here, structure printed only as a drawing) [[drawing CHEM-US-00031] (SEQ ID NO:186)(SEQ ID NO:186)]: the IC50 was at most 500 nM.

A further assay has as its target T3, soluble TPO-R. Description: competition ELISA vs MBP-TPO156. This is another data set of the same source.
Description: (§1) The amount of alkaline phosphatase in each well was then determined using standard methods.
The molecule CIEGPTLRQWLAARA (also: further groups not given here, also called [drawing CHEM-US-00062]) [[drawing CHEM-US-00030] (SEQ ID NO:185)(SEQ ID NO:185)] had an IC50 of at most 500 nM.
On to H-IEGPTLRQWLAARA-NH2 [[H]-IEGPTLRQWLAARA-[NH2]], for which the IC50 was at most 500 nM.
On to CIEGPTLRQWLAARAC (cysteine pairing not given here; also: further groups not given here, structure printed only as a drawing) [[drawing CHEM-US-00060] (SEQ ID NO:194)], for which the IC50 is at most 500 nM.

For the next assay, the target named is T1, full length human TPO-R. Description: cell-based or functional assay.
As for ADGPTLREWISFE (also: further groups not given here) [[drawing CHEM-US-00018] (SEQ ID NO:183)], the EC50 cell proliferation is around 200000 nM and the EC50 microphysiometer was around 200000 nM.
As to ADGPTLREWISFC (also: further groups not given here) [[drawing CHEM-US-00016] (SEQ ID NO:173)], the EC50 cell proliferation was at most 500 nM and the EC50 microphysiometer is at most 200000 nM.
Molecule ADGPTLREWISFC (also: further groups not given here, structure printed only as a drawing) [[drawing CHEM-US-00004] (SEQ ID NO:173)] gave an EC50 cell proliferation of at most 500 nM and an EC50 microphysiometer of at most 500 nM.
Consider ADGPTLREWISFC (also: further groups not given here) [[drawing CHEM-US-00017] (SEQ ID NO:173)], for which the EC50 cell proliferation is at most 500 nM and the EC50 microphysiometer is around 200000 nM.

A further assay addresses T2, soluble TPO-R. Description: competition ELISA vs MBP-TPO156. This is another data set of the same source.
Description: as §1
(§2) In this example cyclized compounds were subjected to three assays. First, $IC50$ valves were obtained as described above.
Molecule CADGPTLREWIAFC (also: cyclized, mode not given here) [SEQ ID NO:12 cyclized, S - A] gave an IC50 of at most 500 nM.
In the case of CADGPTLREWISAC (also: cyclized, mode not given here) [SEQ ID NO:12 cyclized, F - A], the IC50 is at most 500 nM.

The target in the next assay is T3, soluble TPO-R. In words: competition ELISA vs MBP-TPO156. The source holds these as a separate data set.
Description: as §1, §2
For the molecule CADGPTLRQWISFC (also: cyclized, mode not given here) [SEQ ID NO:12 cyclized, E - Q], the IC50 is at most 500 nM.
The same measure, in the same setting: next, CPTLREWISFC (disulfide 1-11 (inferred); not fully specified) [SEQ ID NO:12 cyclized, ADG - deletion]: at most 200000 nM.
The molecule CAAGPTLREWISFC (also: cyclized, mode not given here) [SEQ ID NO:12 cyclized, D - A] gave an IC50 of at most 500 nM.

The target in a further assay is T2, soluble TPO-R. Description: competition ELISA vs MBP-TPO156. The source holds these as a separate data set.
Description: as §1, §2
Molecule ADGPTLREWISFC (also: further groups not given here, structure printed only as a drawing) [[drawing CHEM-US-00004] (SEQ ID NO:173)] had an IC50 of at most 500 nM.

A further assay concerns the target T3, soluble TPO-R. Description: equilibrium binding ELISA, MBP-TPO or lacI-peptide tracer.
In the case of GGCTLREWLHGGFCGG (free synthetic peptide) [G G C T L R E W L H G G F C G G], the IC50 was at most 500 nM.

The target of the next assay is T1, full length human TPO-R. Description: cell-based or functional assay. This is another data set of the same source.
As for CIEGPTLRQWLAARA (also: further groups not given here, also called [drawing CHEM-US-00062]) [[drawing CHEM-US-00030] (SEQ ID NO:185)(SEQ ID NO:185)], the EC50 cell proliferation is at most 500 nM and the EC50 microphysiometer was at most 500 nM.
Take H-IEGPTLRQWLAARA-NH2 [[H]-IEGPTLRQWLAARA-[NH2]]: the EC50 cell proliferation is at most 500 nM.
For the molecule CIEGPTLRQWLAARAC (cysteine pairing not given here; also: further groups not given here, structure printed only as a drawing) [[drawing CHEM-US-00060] (SEQ ID NO:194)], the EC50 cell proliferation is at most 500 nM.

The target in a further assay is T1, full length human TPO-R. Description: cell-based or functional assay. The source holds these as a separate data set.
Regarding DGPTLREWISFC (also: further groups not given here, structure printed only as a drawing) [[drawing CHEM-US-00037] (SEQ ID NO:189)(SEQ ID NO:189)], the EC50 cell proliferation was at most 500 nM and the EC50 microphysiometer is at most 500 nM.
CIEGPTLRQWLAARA (also: further groups not given here, also called [drawing CHEM-US-00062]) [[drawing CHEM-US-00030] (SEQ ID NO:185)(SEQ ID NO:185)]: the EC50 cell proliferation is at most 500 nM and the EC50 microphysiometer was at most 500 nM.
Regarding H-CADGPTLREWISFC-NH2 (disulfide 1-14 (inferred), also called [drawing CHEM-US-00034]) [cyclized monomer (SEQ ID NO:12)], the EC50 cell proliferation is at most 500 nM and the EC50 microphysiometer is at most 500 nM.
With SVQCGPTLRQWLAARNHLS (also: further groups not given here, structure printed only as a drawing) [[drawing CHEM-US-00032] (SEQ ID NO:187)(SEQ ID NO:187)], the EC50 cell proliferation was at most 500 nM and the EC50 microphysiometer was at most 500 nM.
With MVGPTLRSGC (also: further groups not given here, structure printed only as a drawing) [[drawing CHEM-US-00033] (SEQ ID NO:188)(SEQ ID NO:188)], the EC50 cell proliferation was at most 200000 nM.
CADGPTLREWISF (also: further groups not given here, structure printed only as a drawing) [[drawing CHEM-US-00031] (SEQ ID NO:186)(SEQ ID NO:186)] returned an EC50 cell proliferation of at most 500 nM and an EC50 microphysiometer of at most 500 nM.

In a further assay the target is T1, full length human TPO-R. Description: cell-based or functional assay. The source holds these as a separate data set.
As to CADGPTLRQWISFC (also: cyclized, mode not given here) [SEQ ID NO:12 cyclized, E - Q], the EC50 cell proliferation is at most 500 nM and the EC50 microphysiometer was at most 200000 nM.
Molecule CPTLREWISFC (disulfide 1-11 (inferred); not fully specified) [SEQ ID NO:12 cyclized, ADG - deletion] displayed an EC50 microphysiometer of at most 200000 nM.
In the case of CADGPTLREWIAFC (also: cyclized, mode not given here) [SEQ ID NO:12 cyclized, S - A], the EC50 cell proliferation was at most 500 nM and the EC50 microphysiometer is at most 500 nM.
Molecule CADGPTLREWISAC (also: cyclized, mode not given here) [SEQ ID NO:12 cyclized, F - A] registered an EC50 cell proliferation of around 200000 nM and an EC50 microphysiometer of at most 200000 nM.
Take CAAGPTLREWISFC (also: cyclized, mode not given here) [SEQ ID NO:12 cyclized, D - A]: the EC50 cell proliferation was at most 200000 nM and the EC50 microphysiometer was at most 200000 nM.

In a further assay the target is T3, soluble TPO-R. Description: equilibrium binding ELISA, MBP-TPO or lacI-peptide tracer. This is another data set of the same source.
On to SIEGPTLREWLTSRTPHS (free synthetic peptide) [S I E G P T L R E W L T S R T P H S], for which the IC50 is at most 500 nM.
In turn, LAIEGPTLRQWLHGNGRDT (free synthetic peptide) [L A I E G P T L R Q W L H G N G R D T] showed an IC50 of at most 500 nM.
For GNADGPTLRQWLEGRRPKN (free synthetic peptide) [G N A D G P T L R Q W L E G R R P K N], the IC50 is at most 500 nM.
Regarding GGCADGPTLREWISFCGGK(Biotin) (cysteine pairing not given here, also called AF 12285) [G G C A D G P T L R E W I S F C G G K (Biotin)], the IC50 is at most 500 nM.
The same measure, in the same setting: the value for GGCADGPTLREWISFCGG (free synthetic peptide) [G G C A D G P T L R E W I S F C G G] was at most 500 nM; that for TIKGPTLRQWLKSREHTS (free synthetic peptide) [T I K G P T L R Q W L K S R E H T S] was at most 500 nM.

The target of the next assay is T1, full length human TPO-R. In words: cell-based or functional assay. This is another data set of the same source.
Take ADGPTLREWISFC-OH (also: further groups not given here) [SEQ ID NO:173 compound, free acid form]: the EC50 cell proliferation was at most 500 nM and the EC50 microphysiometer was at most 200000 nM.
In the case of ADGPTLREWISFCG (also: further groups not given here) [SEQ ID NO:173 compound, C-term, Gly addition], the EC50 cell proliferation was at most 500 nM.

For the next assay, the target named is T3, soluble TPO-R. In words: competition ELISA vs MBP-TPO156. The source holds these as a separate data set.
Turning to ADGPTLREWISFCG (also: further groups not given here) [SEQ ID NO:173 compound, C-term, Gly addition], the IC50 is at most 500 nM.
